From PMC5175582 come the findings set out here.

The target in assay [1] is Biotin-labelled MMRN1 (human) (UniProt Q13201). As to the kind of experiment: SPR; BIAcoreX; biotin-labelled MMRN1 immobilised on streptavidin-coated sensor chips (500–1000 RU); VWF A domains perfused in HEPES-Tyrode running buffer with 0.005 % P-20; two-state conformational model for A1A2A3 and A1, 1:1 Langmuir model for A3; apparent affinity.
Assay [2] deals with full-length wild-type (WT)-VWF (UniProt P04275). Description: ELISA; modified ELISA; MMRN1 immobilised; WT-VWF (1 µg/ml) added simultaneously with collagen peptide (250 μg/ml, no preincubation with VWF); treatment of VWF not stated for this panel.

Sequence of Biotin-labelled MMRN1 (human) (Q13201 20-1228): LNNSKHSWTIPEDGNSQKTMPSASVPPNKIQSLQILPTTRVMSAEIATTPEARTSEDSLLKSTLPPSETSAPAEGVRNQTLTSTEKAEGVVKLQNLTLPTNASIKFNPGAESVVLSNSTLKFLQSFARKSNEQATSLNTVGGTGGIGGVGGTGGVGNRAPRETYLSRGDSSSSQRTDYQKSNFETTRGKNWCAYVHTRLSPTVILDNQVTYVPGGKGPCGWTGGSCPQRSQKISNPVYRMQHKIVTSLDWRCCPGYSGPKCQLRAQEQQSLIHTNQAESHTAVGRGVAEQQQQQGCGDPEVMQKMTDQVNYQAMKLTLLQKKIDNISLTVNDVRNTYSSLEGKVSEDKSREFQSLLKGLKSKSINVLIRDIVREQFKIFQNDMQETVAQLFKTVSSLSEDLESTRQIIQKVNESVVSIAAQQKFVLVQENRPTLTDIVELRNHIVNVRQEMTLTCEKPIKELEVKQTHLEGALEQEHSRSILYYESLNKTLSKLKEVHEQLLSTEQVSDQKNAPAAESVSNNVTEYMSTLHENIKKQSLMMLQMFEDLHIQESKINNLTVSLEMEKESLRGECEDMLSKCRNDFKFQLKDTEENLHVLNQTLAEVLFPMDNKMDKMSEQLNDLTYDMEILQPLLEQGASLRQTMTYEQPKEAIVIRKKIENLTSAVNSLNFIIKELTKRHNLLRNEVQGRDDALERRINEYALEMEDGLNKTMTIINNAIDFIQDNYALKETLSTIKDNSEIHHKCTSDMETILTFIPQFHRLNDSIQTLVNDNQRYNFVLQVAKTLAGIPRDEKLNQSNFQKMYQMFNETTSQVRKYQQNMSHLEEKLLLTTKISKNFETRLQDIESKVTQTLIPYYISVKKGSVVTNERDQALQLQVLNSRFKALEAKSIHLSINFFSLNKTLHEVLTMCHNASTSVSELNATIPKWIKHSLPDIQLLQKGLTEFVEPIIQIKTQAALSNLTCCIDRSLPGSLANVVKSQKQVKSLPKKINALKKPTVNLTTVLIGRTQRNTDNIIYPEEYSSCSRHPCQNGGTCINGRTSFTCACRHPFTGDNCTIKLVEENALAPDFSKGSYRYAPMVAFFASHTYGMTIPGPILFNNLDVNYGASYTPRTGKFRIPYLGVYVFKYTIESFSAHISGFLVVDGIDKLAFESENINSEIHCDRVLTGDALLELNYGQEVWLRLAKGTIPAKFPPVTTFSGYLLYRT

Turning to “Monomeric VWF A1 domain (domain or fragment)”, in assay [1], the Kd worked out at 0.0393 µM; the ka1 (two-state model, first step) stood at 1.2e+06 M⁻¹ s⁻¹; the ka2 (two-state model, second step) was determined as 0.01 s⁻¹; the kd1 (two-state model, first step) was 0.13 s⁻¹. Besides, the kd2 (two-state model, second step) in assay [1] is 0.0032 s⁻¹.
“Triple-helical type III collagen peptide GPRGQOGVMGFO” had a percent reduction of WT-VWF binding to immobilised MMRN1 in assay [2] of 70%.
